Positions count from the first letter of the chain named.
Experiments:
[1] = molecular target: T1, CNA construct CNA11, two-hybrid prey (Mus musculus (Mouse), UniProt P48453 384-495); assay: yeast two-hybrid assay (FIG. 14)
T1 construct: not shown: HA-pJG4-5 prey fusion moiety

[2] = molecular target: T2, CNA beta C ter-delta 1 (amino acids 378 to 500), two-hybrid prey (human, UniProt P16298 378-500); assay: yeast two-hybrid mating assay
T2 construct: also called CnAβCter Δ1
Method: (§1) The 5′ end of RH6 (upper case) matches part of the HA epitope tag and the 5′ ends of RH4, RH3 and RH7 (upper case) match the 5′ extremity of the ADH terminator. The PCR reactions was performed using pCMV-SPORT6-CnAβ as a template. […] MB210a was co-transformed with the PCR products and EcoRI/XhoI-cut pJG4-5. The prey plasmids were retrieved from the transformants (21) and the homologous recombination products were checked by sequencing. MB210a was also transformed with positive and negative controls of interaction. […] The yeast two-hybrid mating assays were performed as described (21).

[3] = molecular target: T3, CNA beta C ter-delta 2 (amino acids 378 to 456), two-hybrid prey (human, UniProt P16298 378-456); assay: yeast two-hybrid mating assay
T3 construct: also called CnAβCter Δ2
Method: as §1

[4] = molecular target: T4, CNA beta C ter-CaM (amino acids 378 to 423), two-hybrid prey (human, UniProt P16298 378-423); assay: yeast two-hybrid mating assay
T4 construct: also called CnAβCter CaM
Method: as §1

[5] = molecular target: T5, NS5A-TP2 (two-hybrid prey) (human, UniProt Q7Z4H3 1-204); assay: yeast two-hybrid assay (FIG. 9)
T5 sequence: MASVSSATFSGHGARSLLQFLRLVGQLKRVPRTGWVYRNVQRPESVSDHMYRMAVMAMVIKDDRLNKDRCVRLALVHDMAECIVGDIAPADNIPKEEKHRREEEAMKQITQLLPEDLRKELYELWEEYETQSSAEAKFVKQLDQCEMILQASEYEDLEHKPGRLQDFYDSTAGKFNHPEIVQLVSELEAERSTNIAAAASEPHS
Source text: (§2) CNA beta and gamma C-Terminal fragments and NS5A-TP2 were cloned in three different vectors (pSH18-34, pJK103 and pRB18-40). These three plasmids differ from each other in the level of sensitivity of their promoter, pSH18-34 having the highest sensitivity and pRB18-40 having the lowest.

[6] = molecular target: T6, CNAγ C-terminal fragment (calcineurin A gamma clone selected from the testes cDNA library, two-hybrid prey) (human, UniProt P48454 365-512); assay: yeast two-hybrid mating assay
T6 construct: Truncated protein; also called CNA gamma C-terminal fragment
T6 sequence (P48454 365-512): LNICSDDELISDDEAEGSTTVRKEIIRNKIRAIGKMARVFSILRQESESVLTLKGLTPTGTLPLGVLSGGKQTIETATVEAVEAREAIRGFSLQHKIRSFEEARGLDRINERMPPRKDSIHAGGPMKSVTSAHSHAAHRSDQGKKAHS
Method: as §1

[7] = molecular target: T7, CNAβ C-terminal fragment (calcineurin A beta clone selected from the testes cDNA library, two-hybrid prey) (human, UniProt P16298 378-524); assay: yeast two-hybrid mating assay
T7 construct: Truncated protein; The truncations made from it start at amino acid 378; also called CNA beta C-terminal fragment
Method: as §1

[8] = molecular target: T6, CNAγ C-terminal fragment (calcineurin A …); assay: yeast two-hybrid assay (FIG. 9)
Source text: as §2

[9] = molecular target: T7, CNAβ C-terminal fragment (calcineurin A …); assay: yeast two-hybrid assay (FIG. 9)
Source text: as §2

[10] = molecular target: T5, NS5A-TP2 (two-hybrid prey); assay: yeast two-hybrid assay, higher sensitivity (FIG. 14)
[11] = molecular target: T8, CNA construct CNA4, two-hybrid prey (Homo sapiens (Human), UniProt P16298 414-524); assay: as above
T8 construct: not shown: HA-pJG4-5 prey fusion moiety

[12] = molecular target: T1, CNA construct CNA11, two-hybrid prey; assay: as above
[13] = molecular target: T9, CNA construct CNA3, two-hybrid prey (Homo sapiens (Human), UniProt P16298 384-524); assay: as above
T9 construct: not shown: HA-pJG4-5 prey fusion moiety

[14] = molecular target: T10, CNA construct CNA9, two-hybrid prey (Rattus norvegicus (Rat), UniProt P20651 342-419); assay: as above
T10 construct: not shown: HA-pJG4-5 prey fusion moiety

[15] = molecular target: T11, CNA construct CNA7, two-hybrid prey (Homo sapiens (Human), UniProt P16298 1-413); assay: as above
T11 construct: not shown: HA-pJG4-5 prey fusion moiety

[16] = molecular target: T12, CNA construct CNA8, two-hybrid prey (Homo sapiens (Human), UniProt P16298 1-388); assay: as above
T12 construct: not shown: HA-pJG4-5 prey fusion moiety

[17] = molecular target: T13, CNA construct CNA10, two-hybrid prey; assay: as above
T13 construct: not shown: HA-pJG4-5 prey fusion moiety

B1: LexA-R5G42 fusion protein (peptide aptamer R5G42 as two-hybrid bait) (designed binder, not shown: large carriers)
chain: MVKQIESKTAFQEALDAAGDKLVVVDFSATWCGPSAVTFAVCALGPCKMIKPFFHSLSEKYSNVIFLEVDVDDCQDVASECEVKCMPTFQFFKKGQKVGEFSGANKEKLEATINELV
notes: also called LexA-R5G42 bait protein
B1: binds [1]; binds [2]; no binding [3]. B1: no binding [4].

B2: R5G42 mutant C2 (LexA fusion, two-hybrid bait) (designed binder)
chain: B1 chain with P52L
notes: One amino acid change against R5G42; also called R5G42-C2; not shown: LexA fusion partner (pGILDA bait)
B2: no binding [5]; binds [1].

B3: LexA-R7G44 fusion protein (peptide aptamer R7G44 as two-hybrid bait) (designed binder)
chain: B1 chain with S35H, A36Q, V37S, F39I, A40G, C42A, A43E, L44F
notes: Control aptamer; not shown: LexA (E. coli), fusion partner from pGILDA
B3: no binding [6]; no binding [7].

B4: R5G42 mutant N9 (LexA fusion, two-hybrid bait) (designed binder)
chain: B1 chain with T30A
notes: One amino acid change against R5G42; also called R5G42-N9; not shown: LexA fusion partner (pGILDA bait)
B4: no binding [8]; no binding [9]; binds [1].

B5: R5G42 mutant C7 (LexA fusion, two-hybrid bait) (designed binder)
chain: B1 chain with L22P
notes: One amino acid change against R5G42; also called R5G42-C7; not shown: LexA fusion partner (pGILDA bait)
B5: no binding [5]; binds [1].

B6: R5G42 mutant C8 (LexA fusion, two-hybrid bait) (designed binder)
chain: B1 chain with F39I
notes: One amino acid change against R5G42; also called R5G42-C8; not shown: LexA fusion partner (pGILDA bait)
B6: no binding [5]; binds [1].

B7: LexA-R5G52 fusion protein (peptide aptamer R5G52 as two-hybrid bait) (designed binder)
chain: B1 chain with S35I, A36Q, V37S, T38P, F39P, A40E, V41S, C42P, A43T, L44G
notes: also called LexA-R5G52 bait protein; not shown: LexA (E. coli), fusion partner from pGILDA
B7: no binding [10]; no binding [11]; no binding [12]. B7: no binding [13]; no binding [14]; no binding [15]. B7: no binding [16]; no binding [17].

From patent publication US20120245092A1 (ECOLE NORMALE SUPERIEURE DE LYON, published 2012)
